B1: SEC22B (parent)
chain: AKQLFRKLNEQSPTRCTLEAGAMT
B2: C1orf137 (parent)
chain: RQHHHQSSFPGSLPQETNLTLKVC

Variants of: B1
Experiment: protein stability index of a GFP-peptide fusion (GPS, HEK-293T) (PSI 1-6); higher = more stable
Settings: c terminus: a fixed tail appended
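Further: lentivirally expressed fusions sorted by FACS into six bins by GFP to DsRed ratio, PSI derived from sequencing read proportions per bin multiplied by bin number.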

Protein stability index, by site and new letter:
L18: K 2.7, W 1.94, N 3.17, S 3.26, E 3.47
G21: Y 1.95, L 2.12, W 1.61, T 1.86, C 2.58, R 2.4, H 1.94, V 4.07
A22: F 1.49, D 2.33, C 2.07, W 3.6, Q 1.88, G 2.35
T24: L 2.13, P 1.72, H 2.06, Q 2.39, D 2.39
Q11: A 1.77, M 2.26, F 1.65, R 1.41, G 2.14, P 2.09, Y 1.35
S12: D 3.51, V 1.45, I 1.86, H 2.13, Y 2.43, A 1.88, W 1.77, Q 2.16
K7: S 2.31, G 2.24, R 2, M 1.83, D 2.7, C 2.82, Q 2.25
P13: N 1.86, R 2.73, T 2.14, Q 1.98, Y 1, K 1.88
L4: S 3.44, D 3.27, R 2.96, M 2.4, C 2.77, G 2.94, I 1.99, A 2.73
R6: S 2.53, K 2.07, M 1.75, W 2.12, D 2.67, V 2.31
A20: H 2.47, I 2.27, N 3.08, P 2.65, K 3.02, T 2.96, E 3.22, D 3.07, C 1.64
F5: P 3.46, K 3.47, W 1.94, T 2.75, Q 3.23, D 3.37, L 2.48, V 2.95
Q3: G 2.39, D 2.3, K 2.02, V 2.11, Y 1.55
A1: E 3.12, P 2.52, K 2.77, Y 1.89, C 2.09, D 2.98, H 2.23
N9: I 2.13, E 3.56, M 1.85, F 2.57, L 1.35, T 1.97, Q 2.5, A 1.95, V 1.39, C 1.92, K 2.58, D 2.98
E10: W 1.56, Y 3.1, P 1.34, K 1.65, L 1.08, I 2.7
L8: W 3.19, R 3.84, F 2, G 2.49, S 2.35, I 2.1, Y 1.91, K 3.07, V 3.09, D 3.66
K2: F 1.72, M 1.8, Y 2.24, S 2.4, H 1.94, E 2.92
T14: P 2.35, Y 1.99, M 1.79, H 1.81, E 3.53, W 2.01, Q 1.86, N 1.98
E19: Q 2.87, N 2.95, D 3.05, F 1.41, L 2.35, V 1.75
T17: Q 2.4, V 2.18, W 2.28, N 2.22
M23: W 2.19, I 2.04, Q 2.81, A 2.09, R 2.26, C 2.18, H 2.25
C16: P 3.96, K 2.95, W 2.52, V 2.53, Y 2.79
R15: C 2.8, V 3.01, P 3, W 1.97, S 2.44, D 4.3

Variants of: B2
Experiment: as above
Settings: c terminus: a fixed tail appended

Protein stability index of substitutions, site by site:
T17: M 2.44, P 2.98
